The text below walks through data of patent US12091391B2, “Reagents and methods for bioorthogonal labeling of biomolecules in living cells” (Oregon State University, priority 2015, dated 2024).

Positions count from the first letter of the chain named. Numbers in names are those of the source.

The labels stand for the following.
B1: R2-40: M. barkeri PylRS synthetase hit for Tet-v3.0: N311G, C313A, K296R (protein, UniProt Q46E77 1-419, looked up, variant N311G C313A K296R)
Pyrrolysine--tRNA ligase: MDKKPLDVLISATGLWMSRTGTLHKIKHYEVSRSKIYIEMACGDHLVVNNSRSCRTARAFRHHKYRKTCKRCRVSDEDINNFLTRSTEGKTSVKVKVVSAPKVKKAMPKSVSRAPKPLENPVSAKASTDTSRSVPSPAKSTPNSPVPTSAPAPSLTRSQLDRVEALLSPEDKISLNIAKPFRELESELVTRRKNDFQRLYTNDREDYLGKLERDITKFFVDRDFLEIKSPILIPAEYVERMGINNDTELSKQIFRVDKNLCLRPMLAPTLYNYLRKLDRILPDPIKIFEVGPCYRRESDGKEHLEEFTMVGFAQMGSGCTRENLESLIKEFLDYLEIDFEIVGDSCMVYGDTLDIMHGDLELSSAVVGPVPLDREWGIDKPWIGAGFGLERLLKVMHGFKNIKRASRSESYYNGISTNL
B2: R2-84: M. barkeri PylRS synthetase hit for Tet-v3.0: L270G, N311G, C313A, R263C (protein, UniProt Q46E77 1-419, looked up, variant L270G N311G C313A R263C)
Pyrrolysine--tRNA ligase: B1 Pyrrolysine--tRNA ligase with R263C, L270G, R296K
B3: R2-74: M. barkeri PylRS synthetase hit for Tet-v3.0: L270G, N311G, C313S (protein, UniProt Q46E77 1-419, looked up, variant L270G N311G C313S)
Pyrrolysine--tRNA ligase: B1 Pyrrolysine--tRNA ligase with L270G, R296K, A313S

The assay in a line: UP50 characterization of select synthetases (GFP fluorescence versus Tet-v3.0 concentration). Format: cell-based, E. coli. The note with it: fluorescence normalized to optical density, amino acid Tet-v3.0 (methyl). The source says:
The UP50 value is a measure of amino acid concentration at which cells containing a given synthetase produces half of the maximum amount of unnatural protein containing the amino acid of interest. In this way the UP50 is dependent both on the synthetase and amino acid of interest. This value is obtained by measuring the fluorescence of produced GFP at various concentrations of amino acids and fitting measured values to the curve:
UP is the measured fluorescence, [AA] is the amino acid concentration, and UPmax is the maximum protein produced. The methodology for obtaining UP50 and UPmax values is described below.
Non-inducing media starter cultures containing Tcn (25 μg/mL) and Kn (50 μg/mL) were grown overnight (37° C., 18 hrs). Starter cultures consisted of E. coli DH10B transformed with a pBK plasmid containing the synthetases of interest (R2-40, R2-74, and R2-84) and tRNA, as well as a pALS plasmid containing an amber codon interrupted GFP gene under control of an araBAD promoter. Starters were used to inoculate (30 μL) autoinducing media (3 mL) containing Tcn (25 μg/mL), Kn (50 μg/mL), and Tet-v3.0 at various concentrations. Tet-v3.0 concentrations were varied from 0.005 mM to 1 mM with duplicates for each concentration. As a control, media was inoculated in duplicate containing no amino acid. To aid in dissolution, 30 μL of N,N-dimethyl formamide (DMF) was added to the Tet-v3.0 prior to addition to media.
The fluorescence and optical density of the media was measured after 24, 36, and 48 hrs. The fluorescence normalized to the optical density was plotted across Tet-v3.0 concentrations and used to calculate the UP50 and UPmax for individual synthetases (see FIG. 16. FIG. 16 compares UP50 titration curves for three Tet-v3.0-methyl incorporating synthetases: R2-40, R2-74, and R2-84. UP50 and UPmax values are obtained from the fit of the curves. The R2-74 synthetase was moved into eukaryotic plasmids for protein expression.
The molecule B1 returned a UPmax of 540.

Regarding B2, the UPmax is 517. With B3 the figure was 400.
